Test results from patent US20230235012A1 (ALPINE IMMUNE SCIENCES, published 2023).
Where a chain is given by its changes, count along the chain named. Names may count otherwise.

T1: human ICOS, full-length, expressed on transfected Expi293 cells (human, UniProt Q9Y6W8 21-199)
T1 construct: whole, on cells
T1 sequence (looked up): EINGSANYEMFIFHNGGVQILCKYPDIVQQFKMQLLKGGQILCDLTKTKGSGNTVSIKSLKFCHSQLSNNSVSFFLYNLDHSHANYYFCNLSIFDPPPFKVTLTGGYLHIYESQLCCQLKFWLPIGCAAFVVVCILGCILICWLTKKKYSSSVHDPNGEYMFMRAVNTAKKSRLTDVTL

B1: wild-type ICOSL IgV-Fc fusion (Fc fusion)
chain: DTQEKEVRAMVGSDVELSCACPEGSRFDLNDVYVYWQTSESKTVVTYHIPQNSSLENVDSRYRNRALMSPAGMLRGDFSLRLFNVTPQDEQKFHCLVLSQSLGFQEVLSVEVTLHVAANFSVGSGGGGSEPKSSDKTHTCPPCPAPEAEGAPSVFLFPPKPKDTLMISRTPEVTCVVVDVSHEDPEVKFNWYVDGVEVHNAKTKPREEQYNSTYRVVSVLTVLHQDWLNGKEYKCKVSNKALPAPIEKTISKAKGQPREPQVYTLPPSREEMTKNQVSLTCLVKGFYPSDIAVEWESNGQPENNYKTTPPVLDSDGSFFLYSKLTVDKSRWQQGNVFSCSVMHEALHNHYTQKSLSLSPG
notes: also called WT ICOSL
B2: variant ICOSL IgV-Fc fusion N52Q/N57S/Q100A (Fc fusion)
chain: B1 chain with N52Q, N57S, Q100A
B3: variant ICOSL IgV-Fc fusion N52A/N57Y/Q100A (Fc fusion)
chain: B1 chain with N52A, N57Y, Q100A
B4: variant ICOSL IgV-Fc fusion N52L/N57H/Q100R (Fc fusion)
chain: B1 chain with N52L, N57H, Q100R
B5: variant ICOSL IgV-Fc fusion N52L/N57V (Fc fusion)
chain: B1 chain with N52L, N57V
B6: variant ICOSL IgV-Fc fusion N52S/N57Y/Q100S (Fc fusion)
chain: B1 chain with N52S, N57Y, Q100S
B7: variant ICOSL IgV-Fc fusion N52G/Q100A (Fc fusion)
chain: B1 chain with N52G, Q100A
B8: variant ICOSL IgV-Fc fusion N52S/N57H/Q100E (Fc fusion)
chain: B1 chain with N52S, N57H, Q100E
B9: variant ICOSL IgV-Fc fusion N52M/N57H/Q100S (Fc fusion)
chain: B1 chain with N52M, N57H, Q100S
B10: variant ICOSL IgV-Fc fusion N52K/N57Y/Q100R (Fc fusion)
chain: B1 chain with N52K, N57Y, Q100R
B11: variant ICOSL IgV-Fc fusion N52G/N57V (Fc fusion)
chain: B1 chain with N52G, N57V
B12: variant ICOSL IgV-Fc fusion N52A/N57F/Q100S (Fc fusion)
chain: B1 chain with N52A, N57F, Q100S
B13: variant ICOSL IgV-Fc fusion N52R/N57Y/Q100S (Fc fusion)
chain: B1 chain with N52R, N57Y, Q100S
B14: variant ICOSL IgV-Fc fusion N52T/N57H/Q100A (Fc fusion)
chain: B1 chain with N52T, N57H, Q100A
B15: variant ICOSL IgV-Fc fusion N52V/N57T/Q100L (Fc fusion)
chain: B1 chain with N52V, N57T, Q100L
B16: variant ICOSL IgV-Fc fusion N52S/N57L/Q100S (Fc fusion)
chain: B1 chain with N52S, N57L, Q100S
B17: variant ICOSL IgV-Fc fusion N52C/N57E/Q100S (Fc fusion)
chain: B1 chain with N52C, N57E, Q100S
B18: variant ICOSL IgV-Fc fusion N52M/N57W/Q100P (Fc fusion)
chain: B1 chain with N52M, N57W, Q100P
B19: variant ICOSL IgV-Fc fusion N52R/N57L/Q100A (Fc fusion)
chain: B1 chain with N52R, N57L, Q100A
B20: variant ICOSL IgV-Fc fusion N52S/N57M/Q100S (Fc fusion)
chain: B1 chain with N52S, N57M, Q100S
B21: variant ICOSL IgV-Fc fusion N52Q/N57F (Fc fusion)
chain: B1 chain with N52Q, N57F
B22: variant ICOSL IgV-Fc fusion N52R/N57F/Q100T (Fc fusion)
chain: B1 chain with N52R, N57F, Q100T
B23: variant ICOSL IgV-Fc fusion N52R/N57W/Q100K (Fc fusion)
chain: B1 chain with N52R, N57W, Q100K
B24: variant ICOSL IgV-Fc fusion N52S/N57Y/Q100V (Fc fusion)
chain: B1 chain with N52S, N57Y, Q100V
B25: variant ICOSL IgV-Fc fusion N52T/N57H/Q100S (Fc fusion)
chain: B1 chain with N52T, N57H, Q100S
B26: variant ICOSL IgV-Fc fusion N52H/N57Y/Q100K (Fc fusion)
chain: B1 chain with N52H, N57Y, Q100K
B27: variant ICOSL IgV-Fc fusion N52R/N57L/Q100S (Fc fusion)
chain: B1 chain with N52R, N57L, Q100S
B28: variant ICOSL IgV-Fc fusion N52R/N57Y/Q100R (Fc fusion)
chain: B1 chain with N52R, N57Y, Q100R
B29: variant ICOSL IgV-Fc fusion N52S/N57Y/Q100M (Fc fusion)
chain: B1 chain with N52S, N57Y, Q100M
B30: variant ICOSL IgV-Fc fusion N52G/N57V/Q100G (Fc fusion)
chain: B1 chain with N52G, N57V, Q100G
B31: variant ICOSL IgV-Fc fusion N52P/N57S/Q100G (Fc fusion)
chain: B1 chain with N52P, N57S, Q100G

Legend:
[1] = molecular target: T1, human ICOS, full-length, expressed on …; assay: flow cytometry, 100 nM, Expi293 cells with human ICOS
[2] = molecular target: T2, human CTLA-4, full-length, expressed on transfected Expi293 cells (human, UniProt P16410 36-223); assay: flow cytometry, 100 nM, Expi293 cells with human CTLA-4
T2 construct: whole, on cells

[3] = molecular target: T3, human CD28, full-length, expressed on transfected Expi293 cells (human, UniProt P10747 19-220); assay: flow cytometry, 100 nM, Expi293 cells with human CD28
T3 construct: whole, on cells

T2 sequence (P16410 36-223): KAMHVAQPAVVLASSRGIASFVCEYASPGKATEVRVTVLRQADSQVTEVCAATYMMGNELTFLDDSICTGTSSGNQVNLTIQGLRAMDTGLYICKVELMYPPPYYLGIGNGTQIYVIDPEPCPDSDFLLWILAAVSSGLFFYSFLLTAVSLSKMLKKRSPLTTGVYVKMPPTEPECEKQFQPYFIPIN

Binder | MFI [1] | MFI ratio to WT (ΔWT) [1] | MFI [2] | MFI ratio to WT (ΔWT) [2] | MFI [3] | MFI ratio to WT (ΔWT) [3]
B1 | 212000 MFI | 1 fold | 330000 MFI | 1 fold | 22300 MFI | 1 fold
B2 | 263000 MFI | 1.24 fold | 315000 MFI | 0.95 fold | 91300 MFI | 4.1 fold
B3 | 261000 MFI | 1.23 fold | 320000 MFI | 0.97 fold | 147000 MFI | 6.6 fold
B4 | 250000 MFI | 1.18 fold | 353000 MFI | 1.07 fold | 141000 MFI | 6.3 fold
B5 | 257000 MFI | 1.21 fold | 151000 MFI | 0.46 fold | 54800 MFI | 2.5 fold
B6 | 224000 MFI | 1.06 fold | 205000 MFI | 0.62 fold | 161000 MFI | 7.2 fold
B7 | 303000 MFI | – | – | – | 98700 MFI | –
B8 | 258000 MFI | 1.22 fold | 302000 MFI | 0.92 fold | 117000 MFI | 5.2 fold
B9 | 266000 MFI | 1.25 fold | 463000 MFI | 1.4 fold | 115000 MFI | 5.1 fold
B10 | 199000 MFI | 0.94 fold | 233000 MFI | 0.71 fold | 141000 MFI | 6.3 fold
B11 | 332000 MFI | 1.57 fold | 52500 MFI | 0.16 fold | 69100 MFI | 3.1 fold
B12 | 242000 MFI | 1.14 fold | 255000 MFI | 0.77 fold | 157000 MFI | 7 fold
B13 | 229000 MFI | 1.08 fold | 504000 MFI | 1.53 fold | 133000 MFI | 6 fold
B14 | 220000 MFI | 1.04 fold | 350000 MFI | 1.06 fold | 113000 MFI | 5 fold
B15 | 29200 MFI | 0.14 fold | 11500 MFI | 0.03 fold | 6200 MFI | 0.3 fold
B16 | 269000 MFI | 1.27 fold | 197000 MFI | 0.6 fold | 108000 MFI | 4.8 fold

Binder | MFI [1] | MFI ratio to WT (ΔWT) [1] | MFI [2] | MFI ratio to WT (ΔWT) [2] | MFI [3] | MFI ratio to WT (ΔWT) [3]
B17 | 125000 MFI | 0.59 fold | 10600 MFI | 0.03 fold | 13400 MFI | 0.6 fold
B18 | 322000 MFI | 1.52 fold | 343000 MFI | 1.04 fold | 168000 MFI | 7.5 fold
B19 | 308000 MFI | 1.45 fold | 403000 MFI | 1.22 fold | 119000 MFI | 5.3 fold
B20 | 312000 MFI | 1.47 fold | 228000 MFI | 0.69 fold | 134000 MFI | 6 fold
B21 | 192000 MFI | 0.91 fold | 367000 MFI | 1.11 fold | 131000 MFI | 5.9 fold
B22 | 270000 MFI | 1.27 fold | 358000 MFI | 1.08 fold | 127000 MFI | 5.7 fold
B23 | 349000 MFI | 1.65 fold | 477000 MFI | 1.44 fold | 131000 MFI | 5.9 fold
B24 | 219000 MFI | 1.03 fold | 305000 MFI | 0.92 fold | 126000 MFI | 5.7 fold
B25 | 259000 MFI | 1.22 fold | 378000 MFI | 1.14 fold | 143000 MFI | 6.4 fold
B26 | 214000 MFI | – | – | – | 142000 MFI | –
B27 | 231000 MFI | 1.09 fold | 289000 MFI | 0.88 fold | 112000 MFI | 5 fold
B28 | 6100 MFI | 0.03 fold | 4270 MFI | 0.01 fold | 3280 MFI | 0.1 fold
B29 | 303000 MFI | 1.43 fold | 395000 MFI | 1.2 fold | 157000 MFI | 7 fold
B30 | 260000 MFI | 1.23 fold | 14700 MFI | 0.04 fold | 23700 MFI | 1.1 fold
B31 | 143000 MFI | 0.68 fold | 5050 MFI | 0.02 fold | 6800 MFI | 0.3 fold
